Where “and” joins values, the source holds several entries; their conditions need not be identical. Identical values can stand only once.
B1: Chitosanase, P33665 (parent)
chain: MHSQHRTARIALAVVLTAIPASLATAGVGYASTQASTAVKAGAGLDDPHKKEIAMELVSSAENSSLDWKAQYKYIEDIGDGRGYTGGIIGFCSGTGDMLELVQHYTDLEPGNILAKYLPALKKVNGSASHSGLGTPFTKDWATAAKDTVFQQAQNDERDRVYFDPAVSQAKADGLRALGQFAYYDAIVMHGPGNDPTSFGGIRKTAMKKARTPAQGGDETTYLNAFLDARKAAMLTEAAHDDTSRVDTEQRVFLKAGNLDLNPPLKWKTYGDPYVINS

Variants of: B1
Details: Streptomyces sp. (strain N174); pH 7; 42.7 °C; Thermal; CD; sodium phosphate 50 mM; transition: 3; reversible: yes(79%); structure 1CHK; whole UniProt chain shown

Row | Variant | ddG of mutation (higher = less stable)
1 | MHSQHRTARIALAVVLTAIPASLATAGVGYASTQASTAVKAGAGLDDPHKKEIAMELVSSAENSSLDWKAQYKYIEDIGDGRGYTGGIIGFCSGTGDMLELVQHYTDLEPGNILAKYLPALKKVNGSASHSGLGTPFTKDWATAAKDTVFQQAQNDERDRVYFDPAVSQAKADGLRALGQFAYYDAIVMHGPGNDPTSFGGIRKTAMKKARTPAQGGDETTYLNAFLDARKAAMLTEAAHDDTSRVDTEQRVFLKAGNLDLNPPLKFKTYGDPYVINS [W267F] | 2.97 kcal/mol

Same assay, conditions: Streptomyces sp. (strain N174); pH 7; 43.2 °C; Thermal; Fluorescence; sodium phosphate 50 mM; reversible: yes(81%); structure 1CHK; whole UniProt chain shown

Row | Variant | ddG of mutation (higher = less stable)
2 | MHSQHRTARIALAVVLTAIPASLATAGVGYASTQASTAVKAGAGLDDPHKKEIAMELVSSAENSSLDWKAQYKYIEDIGDGRGYTGGIIGFCSGTGDMLELVQHYTDLEPGNILAKYLPALKKVNGSASHSGLGTPFTKDWATAAKDTVFQQAQNDERDRVYFDPAVSQAKADGLRALGQFAYYDAIVMHGPGNDPTSFGGIRKTAMKKARTPAQGGDETTYLNAFLDARKAAMLTEAAHDDTSRVDTEQRVFLKAGNLDLNPPLKFKTYGDPYVINS [W267F] | 2.51 kcal/mol

Same assay, conditions: Streptomyces sp. (strain N174); pH 7; 52.2 °C; Thermal; CD; sodium phosphate 50 mM; transition: 3; reversible: yes(79%); structure 1CHK; whole UniProt chain shown

Row | Variant | ddG of mutation (higher = less stable)
3 | MHSQHRTARIALAVVLTAIPASLATAGVGYASTQASTAVKAGAGLDDPHKKEIAMELVSSAENSSLDWKAQYKYIEDIGDGRGYTGGIIGFCSGTGDMLELVQHYTDLEPGNILAKYLPALKKVNGSASHSGLGTPFTKDWATAAKDTVFQQAQNDERDRVYFDPAVSQAKADGLRALGQFAYYDAIVMHGPGNDPTSFGGIRKTAMKKARTPAQGGDETTYLNAFLDARKAAMLTEAAHDDTSRVDTEQRVFLKAGNLDLNPPLKFKTYGDPYVINS [W267F] | 1.31 kcal/mol

Same assay, conditions: Streptomyces sp. (strain N174); pH 7; Thermal; CD; sodium phosphate 50 mM; transition: 3; reversible: yes(79%); structure 1CHK; whole UniProt chain shown

Row | Variant | change of melting temperature, mutant - wild type (higher = more stable) | unfolding enthalpy (van 't Hoff)
4 | MHSQHRTARIALAVVLTAIPASLATAGVGYASTQASTAVKAGAGLDDPHKKEIAMELVSSAENSSLDWKAQYKYIEDIGDGRGYTGGIIGFCSGTGDMLELVQHYTDLEPGNILAKYLPALKKVNGSASHSGLGTPFTKDWATAAKDTVFQQAQNDERDRVYFDPAVSQAKADGLRALGQFAYYDAIVMHGPGNDPTSFGGIRKTAMKKARTPAQGGDETTYLNAFLDARKAAMLTEAAHDDTSRVDTEQRVFLKAGNLDLNPPLKFKTYGDPYVINS [W267F] | -6.8 °C and -6.4 °C | 135 kcal/mol and 65 kcal/mol

Same assay, conditions: Streptomyces sp. (strain N174); pH 7; Thermal; Fluorescence; sodium phosphate 50 mM; reversible: yes(81%); structure 1CHK; whole UniProt chain shown

Row | Variant | Tm | change of melting temperature, mutant - wild type (higher = more stable) | unfolding enthalpy (van 't Hoff)
5 | MHSQHRTARIALAVVLTAIPASLATAGVGYASTQASTAVKAGAGLDDPHKKEIAMELVSSAENSSLDWKAQYKYIEDIGDGRGYTGGIIGFCSGTGDMLELVQHYTDLEPGNILAKYLPALKKVNGSASHSGLGTPFTKDWATAAKDTVFQQAQNDERDRVYFDPAVSQAKADGLRALGQFAYYDAIVMHGPGNDPTSFGGIRKTAMKKARTPAQGGDETTYLNAFLDARKAAMLTEAAHDDTSRVDTEQRVFLKAGNLDLNPPLKFKTYGDPYVINS [W267F] | 37.3 °C | -5.9 °C | 132 kcal/mol

Same assay, conditions: Streptomyces sp. (strain N174); pH 7; 42.7 °C; Thermal; CD; sodium phosphate 50 mM; transition: 3; reversible: yes(77%); structure 1CHK; whole UniProt chain shown

Row | Variant | ddG of mutation (higher = less stable)
6 | MHSQHRTARIALAVVLTAIPASLATAGVGYASTQASTAVKAGAGLDDPHKKEIAMELVSSAENSSLDFKAQYKYIEDIGDGRGYTGGIIGFCSGTGDMLELVQHYTDLEPGNILAKYLPALKKVNGSASHSGLGTPFTKDWATAAKDTVFQQAQNDERDRVYFDPAVSQAKADGLRALGQFAYYDAIVMHGPGNDPTSFGGIRKTAMKKARTPAQGGDETTYLNAFLDARKAAMLTEAAHDDTSRVDTEQRVFLKAGNLDLNPPLKWKTYGDPYVINS [W68F] | 3.56 kcal/mol

Same assay, conditions: Streptomyces sp. (strain N174); pH 7; 43.2 °C; Thermal; Fluorescence; sodium phosphate 50 mM; reversible: yes(75%); structure 1CHK; whole UniProt chain shown

Row | Variant | ddG of mutation (higher = less stable)
7 | MHSQHRTARIALAVVLTAIPASLATAGVGYASTQASTAVKAGAGLDDPHKKEIAMELVSSAENSSLDFKAQYKYIEDIGDGRGYTGGIIGFCSGTGDMLELVQHYTDLEPGNILAKYLPALKKVNGSASHSGLGTPFTKDWATAAKDTVFQQAQNDERDRVYFDPAVSQAKADGLRALGQFAYYDAIVMHGPGNDPTSFGGIRKTAMKKARTPAQGGDETTYLNAFLDARKAAMLTEAAHDDTSRVDTEQRVFLKAGNLDLNPPLKWKTYGDPYVINS [W68F] | 4.43 kcal/mol

Same assay, conditions: Streptomyces sp. (strain N174); pH 7; 52.2 °C; Thermal; CD; sodium phosphate 50 mM; transition: 3; reversible: yes(77%); structure 1CHK; whole UniProt chain shown

Row | Variant | ddG of mutation (higher = less stable)
8 | MHSQHRTARIALAVVLTAIPASLATAGVGYASTQASTAVKAGAGLDDPHKKEIAMELVSSAENSSLDFKAQYKYIEDIGDGRGYTGGIIGFCSGTGDMLELVQHYTDLEPGNILAKYLPALKKVNGSASHSGLGTPFTKDWATAAKDTVFQQAQNDERDRVYFDPAVSQAKADGLRALGQFAYYDAIVMHGPGNDPTSFGGIRKTAMKKARTPAQGGDETTYLNAFLDARKAAMLTEAAHDDTSRVDTEQRVFLKAGNLDLNPPLKWKTYGDPYVINS [W68F] | 1.76 kcal/mol

Same assay, conditions: Streptomyces sp. (strain N174); pH 7; Thermal; CD; sodium phosphate 50 mM; transition: 3; reversible: yes(77%); structure 1CHK; whole UniProt chain shown

Row | Variant | Tm | change of melting temperature, mutant - wild type (higher = more stable) | unfolding enthalpy (van 't Hoff)
9 | MHSQHRTARIALAVVLTAIPASLATAGVGYASTQASTAVKAGAGLDDPHKKEIAMELVSSAENSSLDFKAQYKYIEDIGDGRGYTGGIIGFCSGTGDMLELVQHYTDLEPGNILAKYLPALKKVNGSASHSGLGTPFTKDWATAAKDTVFQQAQNDERDRVYFDPAVSQAKADGLRALGQFAYYDAIVMHGPGNDPTSFGGIRKTAMKKARTPAQGGDETTYLNAFLDARKAAMLTEAAHDDTSRVDTEQRVFLKAGNLDLNPPLKWKTYGDPYVINS [W68F] | 45.2 °C | -7 °C | 80 kcal/mol

Same assay, conditions: Streptomyces sp. (strain N174); pH 7; Thermal; Fluorescence; sodium phosphate 50 mM; reversible: yes(75%); structure 1CHK; whole UniProt chain shown

Row | Variant | Tm | change of melting temperature, mutant - wild type (higher = more stable) | unfolding enthalpy (van 't Hoff)
10 | MHSQHRTARIALAVVLTAIPASLATAGVGYASTQASTAVKAGAGLDDPHKKEIAMELVSSAENSSLDFKAQYKYIEDIGDGRGYTGGIIGFCSGTGDMLELVQHYTDLEPGNILAKYLPALKKVNGSASHSGLGTPFTKDWATAAKDTVFQQAQNDERDRVYFDPAVSQAKADGLRALGQFAYYDAIVMHGPGNDPTSFGGIRKTAMKKARTPAQGGDETTYLNAFLDARKAAMLTEAAHDDTSRVDTEQRVFLKAGNLDLNPPLKWKTYGDPYVINS [W68F] | 36.2 °C | -7 °C | 196 kcal/mol

From FireProtDB (doi:10.1016/s0167-4838(98)00243-x)
